In the supplement of paper PMC9170038:

System: MS2 coat protein
Assay: apparent KD of MS2 coat protein; designed switch direction (-1 OFF switch, 1 ON switch): 1; higher = weaker reporter binding
Method in brief: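 Transcription of designed RNA switches on Illumina chips was done by stalled E. coli RNA polymerase. SNAP-549-labelled MS2 coat protein was then titrated in doubling steps from 0.7 or 1.5 nM to 3 µM, with steps of 0.8–1.5 h at the lowest and 10–20 min at the highest concentration. The per-design median over clusters of curve-fitted normalised fluorescence is reported as apparent KD.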

[1] = input ligand: microRNA oligo, concentration not stated
[2] = Eterna round: R95, input ligand: microRNA oligo, concentration not stated
[3] = Eterna round: R95, input ligand: FMN 200 uM
[4] = Eterna round: R95, input ligand: none

Row | Sequence | apparent KD of MS2 coat protein (input ligand: FMN 200 uM) [nM] | apparent KD of MS2 coat protein [1] [nM] | apparent KD of MS2 coat protein (input ligand: none) [nM] | apparent KD of MS2 coat protein [2] [nM] | apparent KD of MS2 coat protein [3] [nM] | apparent KD of MS2 coat protein [4] [nM]
1 | ACCCGCGACGGAGGAUAUGGGCACUCGGCGAAAUAAACCGCCAUAACAUGAGGAUCACCCAUGUCCCAGAAGGCCGUCGCAAUC [Anlelaen] (Eterna round: R96, puzzle: Same State NG 2) | 81 | 154 | 473 | – | – | –
2 | CAGCGCUGUCGAGAGGAUAUGCGGUGAUGGACAUGAGGAUCACCCAUGUUAGCGAUAGUAUUACGGUAGAAGGCUCUACAGCUGC [Soteed - 11] (puzzle: Same State 2) | – | – | – | 43.6 | – | –
3 | UUUGGGUGGCUGGAGGAUAUCCUUGUUGUUACAUGAGGAUCACCCAUGUGCCGCGCGGUUCGCGAGGAGAAGGCUGGCGGCCGUU (puzzle: Same State 2) | – | – | – | 169 | – | –
4 | AAAUAAAACACAGGAUAUGCAACCAAUACGGCGGCAGAAGGGUGAGACAUGAGGAUCACCCAUGUACACGUCCCACAGACGUGC [Onlaa] (Eterna round: R96, puzzle: Same State NG 1) | 387 | 243 | 175 | – | – | –
5 | GUCGGUCUGUCGUGCUGUGGUGAUAGUUAACAUGAGGAUCACCCAUGUUGCUUUCGGGUCGUUGGGAGUUUUUUUCG [Modxample 121 - Jieux - Sensor for bsa-mir-208a] (Eterna round: R96, puzzle: Sensor for hsa-mir-208a) | 63.1 | 43.9 | 64 | – | – | –
6 | UUAUCACAUGAGGAUCACCCAUGUUAUACUUUUUUAGGAUAUUUUAUGUAUGACCAAAUAAAAGAAGGAGGAAUAA [flagellum_key_01] (puzzle: Same State 1) | – | – | – | 44.4 | 31.2 | 47
7 | UGACACACGGCAGGAUAUCGAUAGCAAAGCUAUCGAGAAGGGCCUCAUGUCGUGGAAACGUGACAUGAGGAUCACCCAUGUCGC [Omei SS(NG)1 Cv12] (Eterna round: R96, puzzle: Same State NG 1) | 72 | 12.6 | 26.6 | – | – | –
8 | AUACAUAUCAGAGGAUAUCACGUCGAAUAGACGUGAGAAGGCUGAUCACACAUGAAUAUUAAUACAUGAGGAUCACCCAUGUAU [SSNG1/14-A1] (Eterna round: R96, puzzle: Same State NG 1) | 13.1 | 13.3 | 17.4 | – | – | –
9 | GGCAGGUGCAGGCUUGCUUGCACCUGGAAACAUGAGGAUCACCCAUGUUUGGGACAAGCUUUGCUCUUCGUCUUUUC [JL ViennaUCT Isusreraar mod 5] (puzzle: Sensor for hsa-mir-208a) | – | – | – | 55.1 | 43.7 | 54.2
10 | AGCUAUUAAUCAGGAUAUGGUGACAUGAGGAUCACCCAUGUAUAGAUGAUUAAAUGUGGUCUAAACUAGAAGGGAUUACUAACA [SameState NG2 #54] (Eterna round: R96, puzzle: Same State NG 2) | 156 | 283 | 268 | – | – | –
11 | GAGCCAGUCCGAGGAUAUUCAUAUUACAUGAGGAUCACCCAUGUAGGCUCAGAAAAGGAGCCUUGGGAGAAGGCGGACUGGCUC [Xeonanisa<<3] (Eterna round: R96, puzzle: Same State NG 2) | 13.4 | 153 | 217 | – | – | –
12 | AGAUCAUGACGAGGAUAUGCGACAUGAGGAUCACCCAUGUAUGUUGCAGGACGCGUACGUCCAAUGUAGAAGGCGUCGUGGUCA [JL SSNG2 1.05] (Eterna round: R96, puzzle: Same State NG 2) | 22.8 | 65.1 | 88.7 | – | – | –
13 | GUAAGGCAAGCUUUUUUCUCGUAGUGUAAACAUGAGGAUCACCCAUGUGCUCGCCCUGGAUCUUUGAAUCGCAGAAA [Ritiorreon] (puzzle: Sensor for hsa-mir-208a) | – | – | – | 23.1 | 44.9 | 49.5
14 | GGGAAGAGGGACAAGGAUAUGUCAAAAGAGACAUGAGGAUCACCCAUGUGGAGGUUGGAGCAGAGACAGAAGGUGUACGGAGAGA [JR_SS2_Sub009] (puzzle: Same State 2) | – | – | – | 63 | 69.7 | 152
15 | ACAGCCGGCACUGAGGAUAUUCAUAUUAAAACAUGAGGAUCACCCAUGUAGGCCAGAAGGCCUUGGGAGAAGGCAGGUCGGCUGA [Mat - Same State 2 - Mod of UCT - D64] (puzzle: Same State 2) | – | – | – | 229 | 18.8 | 391
16 | UUGCUCGUGUGAGGAUAUGCAGCCGUUUCGGCUGCAGAAGGUACUAUAAUACAUGAGGAUCACCCAUGUCUCUGUUGUUUGGUG [salish99_SSNG1_r04_930] (Eterna round: R96, puzzle: Same State NG 1) | 69.7 | 49.4 | 63.7 | – | – | –
17 | GCUACCAAUGAAGCCAACAUGAGGAUCACCCAUGUAUGUUGGCAGGAUAUCGAUUGCAAAGCGAUCGAGAAGGGCUAAGGUAGC [Mat - Same State NG 3 - JL Mod - D87] (Eterna round: R96, puzzle: Same State NG 3) | 107 | 120 | 177 | – | – | –
18 | ACAUGAGGAUCACCCAUGUAUGCUCAGGAAACUGUGCAACGUGAGGAUAUGGAUCCUAAUUGGAUCCAGAAGGCAUGAAUUAUU [Fiskers NG3ss - 23] (Eterna round: R96, puzzle: Same State NG 3) | 41.5 | 170 | 418 | – | – | –
19 | GUGGUCAGACAUGAGGAUCACCCAUGUGGAAUAAAUAAGGGUUAGGAUAUGCAAUAUAGGAUAUAGCAGAAGGGAUGGUUGGUG (Eterna round: R96, puzzle: Same State NG 3) | – | 84.9 | – | – | – | –
20 | CUAUUAGGAUGAGGAUAUGCAGAGGAUCACCCUGUAGAAGGCAAUAGAUGAGGAUAUGCAGAGGAUCACCCUGUAGAAGGCAAC [pwkr ssNG DX.3] (Eterna round: R96, puzzle: Same State NG 1) | 423 | 98.9 | 177 | – | – | –
21 | AGCAUACAUGAGGAUCACCCAUGUCAACUUAGUCGAGGAUAUGGGCAGCCCUGAGGCGAACCAGAAGGCGAAUUGA [Mat - Same State 1 - Mod of JL - D1] (puzzle: Same State 1) | – | – | – | 51.5 | 28.3 | 66.1
22 | UUGGGUUUGCGAGGAUAUCGUUUGUGAUUUGAUCGAGAAGGCGCUAUUUAAAUUAUUUUAACAUUACAUGAGGAUCACCCAUGU [JR_SSNG1_Sub022] (Eterna round: R96, puzzle: Same State NG 1) | – | 14.8 | – | – | – | –
23 | UGGCUCAGACUAGGAUAUGAUCAUGGCGCUUCGGCGCAUACAUGAGGAUCACCCAUGUAAAGUGAUCAGAAGGAGUCUGAGCCU [SSNG2/7-C3] (Eterna round: R96, puzzle: Same State NG 2) | 14.2 | 10.6 | 19.7 | – | – | –
24 | AUUAUUGAUGCAGGAUAUGAUUAACAUGAGGAUCACCCAUGUGGUGUUGUGAGUAAGGAGAGUGAUCAGAAGGGCAUUUUUUUU [JMF's solution 23] (Eterna round: R96, puzzle: Same State NG 2) | 747 | 435 | 436 | – | – | –
